Experimental data as given in the supplement of paper PMC11246515.
± gives the standard deviation of the averaged measurements.

Experiment: total protein half-life in vivo (active degradation + dilution); higher = more stable protein
[1] = E. coli NCM3722 delta-clpP delta-lon delta-hslV, growth: N-lim chemostat, doubling time 6 h
[2] = E. coli NCM3722 delta-hslV, growth: N-lim chemostat, doubling time 6 h
[3] = E. coli NCM3722 delta-lon, growth: N-lim chemostat, doubling time 6 h
[4] = E. coli NCM3722 delta-smpB, growth: N-lim chemostat, doubling time 6 h
[5] = wild type E. coli NCM3722, growth: C-lim chemostat, doubling time 3 h
[6] = wild type E. coli NCM3722, growth: C-lim chemostat, doubling time 6 h
[7] = wild type E. coli NCM3722, growth: C-lim chemostat, doubling time 12 h
[8] = wild type E. coli NCM3722, growth: N-lim chemostat, doubling time 6 h
[9] = wild type E. coli NCM3722, growth: N-lim chemostat, doubling time 12 h
[10] = wild type E. coli NCM3722, growth: P-lim chemostat, doubling time 6 h
[11] = wild type E. coli NCM3722, growth: P-lim chemostat, doubling time 12 h
[12] = E. coli NCM3722 delta-clpP, growth: N-lim chemostat, doubling time 6 h

Sequence | total protein half-life in vivo [1] | total protein half-life in vivo [2] | total protein half-life in vivo [3] | total protein half-life in vivo [4] | total protein half-life in vivo [5] | total protein half-life in vivo [6] | total protein half-life in vivo [7] | total protein half-life in vivo [8] | total protein half-life in vivo [9] | total protein half-life in vivo [10] | total protein half-life in vivo [11] | total protein half-life in vivo [12]
MLELLFLLLPVAAAYGWYMGRRSAQQNKQDEANRLSRDYVAGVNFLLSNQQDKAVDLFLDMLKEDTGTVEAHLTLGNLFRSRGEVDRAIRIHQTLMESASLTYEQRLLAIQQLGRDYMAAGLYDRAEDMFNQLTDETDFRIGALQQLLQIYQATSEWQKAIDVAERLVKLGKDKQRVEIAHFYCELALQHMASDDLDRAMTLLKKGAAADKNSARVSIMMGRVFMAKGEYAKAVESLQRVISQDRELVSETLEMLQTCYQQLGKTAEWAEFLQRAVEENTGADAELMLADIIEARDGSEAAQVYITRQLQRHPTMRVFHKLMDYHLNEAEEGRAKESLMVLRDMVGEKVRSKPRYRCQKCGFTAYTLYWHCPSCRAWSTIKPIRGLDGL [P0AB58] | 5.9 ± 0.22 h | 6.34 ± 0.37 h | 6.43 ± 0.094 h | 6.039 ± 0.011 h | 3.1 ± 0.047 h | 5.91 ± 0.073 h | 12.2 ± 0.99 h | 6.101 ± 0.027 h | 15.2 ± 0.67 h | 5.63 ± 0.45 h | 12.5 ± 0.6 h | 
MSLSLWQQCLARLQDELPATEFSMWIRPLQAELSDNTLALYAPNRFVLDWVRDKYLNNINGLLTSFCGADAPQLRFEVGTKPVTQTPQAAVTSNVAAPAQVAQTQPQRAAPSTRSGWDNVPAPAEPTYRSNVNVKHTFDNFVEGKSNQLARAAARQVADNPGGAYNPLFLYGGTGLGKTHLLHAVGNGIMARKPNAKVVYMHSERFVQDMVKALQNNAIEEFKRYYRSVDALLIDDIQFFANKERSQEEFFHTFNALLEGNQQIILTSDRYPKEINGVEDRLKSRFGWGLTVAIEPPELETRVAILMKKADENDIRLPGEVAFFIAKRLRSNVRELEGALNRVIANANFTGRAITIDFVREALRDLLALQEKLVTIDNIQKTVAEYYKIKVADLLSKRRSRSVARPRQMAMALAKELTNHSLPEIGDAFGGRDHTTVLHACRKIEQLREESHDIKEDFSNLIRTLSS | 5.49 ± 0.27 h | 2.83 ± 0.047 h | 3.85 ± 0.16 h | 2.8675 ± 0.00078 h | 2.183 ± 0.021 h | 3.897 ± 0.019 h | 5.25 ± 0.15 h | 2.94 ± 0.26 h | 3.79 ± 0.058 h | 3.61 ± 0.12 h | 6.1 ± 0.38 h | 4.24 ± 0.24 h
MTTQYGFFIDSSRCTGCKTCELACKDFKDLGPEVSFRRIYEYAGGDWQEDNGVWHQNVFAYYLSISCNHCDDPACTKVCPSGAMHKREDGFVVVDEDVCIGCRYCHMACPYGAPQYNAEKGHMTKCDGCYSRVAEGKQPICVESCPLRALEFGPIEELRQKHGTLAAVAPLPRAHFTKPNIVIKPNANSRPTGDTTGYLANPEEV [P0AAJ1] | 4.03 h |  |  |  |  |  |  |  |  |  |  | 
MAGLKLQAVTKSWDGKTQVIKPLTLDVADGEFIVMVGPSGCGKSTLLRMVAGLERVTEGDIWINDQRVTEMEPKDRGIAMVFQNYALYPHMSVEENMAWGLKIRGMGKQQIAERVKEAARILELDGLLKRRPRELSGGQRQRVAMGRAIVRDPAVFLFDEPLSNLDAKLRVQMRLELQQLHRRLKTTSLYVTHDQVEAMTLAQRVMVMNGGVAEQIGTPVEVYEKPASLFVASFIGSPAMNLLTGRVNNEGTHFELDGGIELPLNGGYRQYAGRKMTLGIRPEHIALSSQAEGGVPMVMDTLEILGADNLAHGRWGEQKLVVRLAHQERPTAGSTLWLHLAENQLHLFDGETGQRV | 6.33 ± 0.31 h | 5.83 ± 0.11 h | 4.99 ± 0.61 h | 5.45 ± 0.75 h | 3.13 ± 0.15 h | 5.54 ± 0.4 h | 12 ± 0.92 h | 5.14 ± 0.41 h |  | 6.25 ± 0.35 h | 13.2 ± 0.23 h | 6 ± 0.91 h
MDQFECINVADAHQKLQEKEAVLVDIRDPQSFAMGHAVQAFHLTNDTLGAFMRDNDFDTPVMVMCYHGNSSKGAAQYLLQQGYDVVYSIDGGFEAWQRQFPAEVAYGA [P0A6V5] |  |  |  |  |  |  |  | 1.91 h |  |  |  | 
MKKRKTVKKRYVIALVIVIAGLITLWRILNAPVPTYQTLIVRPGDLQQSVLATGKLDALRKVDVGAQVSGQLKTLSVAIGDKVKKDQLLGVIDPEQAENQIKEVEATLMELRAQRQQAEAELKLARVTYSRQQRLAQTKAVSQQDLDTAATEMAVKQAQIGTIDAQIKRNQASLDTAKTNLDYTRIVAPMAGEVTQITTLQGQTVIAAQQAPNILTLADMSAMLVKAQVSEADVIHLKPGQKAWFTVLGDPLTRYEGQIKDVLPTPEKVNDAIFYYARFEVPNPNGLLRLDMTAQVHIQLTDVKNVLTIPLSALGDPVGDNRYKVKLLRNGETREREVTIGARNDTDVEIVKGLEAGDEVVIGEAKPGAAQ | 6.09 ± 0.067 h |  | 6.45 ± 0.1 h | 6.19 ± 0.26 h | 3.07 ± 0.068 h | 6.04 ± 0.16 h | 12.54 ± 0.11 h | 6.37 ± 0.067 h | 13.5 ± 1.4 h | 5.83 ± 0.37 h | 12 ± 0.15 h | 
MLKLLKTIMRAGTATVKYPFAPLEVSPGFRGKPDLMPSQCIACGACACACPANALTIQTDDQQNSRTWQLYLGRCIYCGRCEEVCPTRAIQLTNNFELTVTNKADLYTRATFHLQRCSRCERPFAPQKTIALAAELLAQQQNAPQNREMLWAQASVCPECKQRATLINDDTDVLLVAKEQL | 4.78 h |  |  |  |  |  |  |  |  |  |  | 
MKIGTVAGTNDSTTTIATNDMVQEHVTNFTKELFGYIANGIGDDISSIARTMLGEVVEKIDDWQIERFQQSIQDDKISFTIQTDHSEKYSMLSGMRAHILRRNNNYQFIVTINSKNYGCSLDNTDINWCSIVYLLNNMTVNDNANDVAVTESYKPIWNWKISQYNVSDIKFETMIKPQFADRIYFSNCLPVDPTSTRPTYFGDTDGSVGAVLFALFATGHLGIMAEGENFLSQLLNIEDEVLNVLLRENFNEQLNTNVNTIISILNRRDIILESLQPYLVINKDAVTPCTFLGDQTGDRFSNICGDQFIIDLLKRIMSINENVHVLAGNHETNCNGNYMQNFTRMKPLDEDTYSGIKDYPVCFYDPKYKIMANHHGITFDDQRKRYIIGPITVSIDEMTNALDPVELAAIINKKHHAIINGKKFKTSRAISCRSFNRYFSVSTDYRPKLEALLACSQMLGINQVVAHNGNGGRERIGETGTVLGLNARDSKHAGRMFSMHNCQINPGAGPEITTPWKSYQHEKNRNGLMPLIRRRTMLQL | 5.59 ± 0.23 h |  |  |  |  |  |  |  |  |  |  | 
MTAPLTLLIVEDETPLAEMHAEYIRHIPGFSQILLAGNLAQARMMIERFKPGLILLDNYLPDGRGINLLHELVQAHYPGDVVFTTAASDMETVSEAVRCGVFDYLIKPIAYERLGQTLTRFRQRKHMLESIDSASQKQIDEMFNAYARGEPKDELPTGIDPLTLNAVRKLFKEPGVQHTAETVAQALTISRTTARRYLEYCASRHLIIAEIVHGKVGRPQRIYHSG [P0AEF4] | 4.85 h | 3.43 h |  | 3.22 h | 2.24 h | 5.33 h | 8.21 h | 3 ± 0.62 h | 5.34 ± 0.18 h | 3.33 ± 0.5 h | 7.63 ± 0.19 h | 3.389 ± 0.03 h
MSVRLVLAKGREKSLLRRHPWVFSGAVARMEGKASLGETIDIVDHQGKWLARGAYSPASQIRARVWTFDPSESIDIAFFSRRLQQAQKWRDWLAQKDGLDSYRLIAGESDGLPGITIDRFGNFLVLQLLSAGAEYQRAALISALQTLYPECSIYDRSDVAVRKKEGMELTQGPVTGELPPALLPIEEHGMKLLVDIQHGHKTGYYLDQRDSRLATRRYVENKRVLNCFSYTGGFAVSALMGGCSQVVSVDTSQEALDIARQNVELNKLDLSKAEFVRDDVFKLLRTYRDRGEKFDVIVMDPPKFVENKSQLMGACRGYKDINMLAIQLLNEGGILLTFSCSGLMTSDLFQKIIADAAIDAGRDVQFIEQFRQAADHPVIATYPEGLYLKGFACRVM | 5.39 ± 0.22 h | 5.55 ± 0.16 h | 6.51 ± 0.56 h | 5.25 ± 0.27 h | 3.02 ± 0.1 h | 6.57 ± 0.19 h | 11.32 ± 0.082 h | 6.03 ± 0.6 h | 11.3 ± 1.5 h | 6.28 ± 1.2 h | 13.1 ± 1.7 h | 5.51 ± 0.19 h
MLNQELELSLNMAFARAREHRHEFMTVEHLLLALLSNPSAREALEACSVDLVALRQELEAFIEQTTPVLPASEEERDTQPTLSFQRVLQRAVFHVQSSGRNEVTGANVLVAIFSEQESQAAYLLRKHEVSRLDVVNFISHGTRKDEPTQSSDPGSQPNSEEQAGGEERMENFTTNLNQLARVGGIDPLIGREKELERAIQVLCRRRKNNPLLVGESGVGKTAIAEGLAWRIVQGDVPEVMADCTIYSLDIGSLLAGTKYRGDFEKRFKALLKQLEQDTNSILFIDEIHTIIGAGAASGGQVDAANLIKPLLSSGKIRVIGSTTYQEFSNIFEKDRALARRFQKIDITEPSIEETVQIINGLKPKYEAHHDVRYTAKAVRAAVELAVKYINDRHLPDKAIDVIDEAGARARLMPVSKRKKTVNVADIESVVARIARIPEKSVSQSDRDTLKNLGDRLKMLVFGQDKAIEALTEAIKMARAGLGHEHKPVGSFLFAGPTGVGKTEVTVQLSKALGIELLRFDMSEYMERHTVSRLIGAPPGYVGFDQGGLLTDAVIKHPHAVLLLDEIEKAHPDVFNILLQVMDNGTLTDNNGRKADFRNVVLVMTTNAGVRETERKSIGLIHQDNSTDAMEEIKKIFTPEFRNRLDNIIWFDHLSTDVIHQVVDKFIVELQVQLDQKGVSLEVSQEARNWLAEKGYDRAMGARPMARVIQDNLKKPLANELLFGSLVDGGQVTVALDKEKNELTYGFQSAQKHKAEAAH [P0ABH9] | 6.61 ± 0.43 h | 0.877 ± 0.22 h | 0.987 ± 0.069 h | 0.823 ± 0.015 h | 0.7994 ± 0.0018 h | 0.97 ± 0.039 h | 1.14 ± 0.28 h | 1.03 ± 0.18 h | 1.046 ± 0.0038 h | 0.795 ± 0.2 h | 1.56 ± 0.78 h | 6.29 ± 0.55 h
